The experiment deals with T1, Mouse Cerberus 1 homologue (mCer1) recombinant protein (mouse, UniProt O55233 18-272).
T1 chain: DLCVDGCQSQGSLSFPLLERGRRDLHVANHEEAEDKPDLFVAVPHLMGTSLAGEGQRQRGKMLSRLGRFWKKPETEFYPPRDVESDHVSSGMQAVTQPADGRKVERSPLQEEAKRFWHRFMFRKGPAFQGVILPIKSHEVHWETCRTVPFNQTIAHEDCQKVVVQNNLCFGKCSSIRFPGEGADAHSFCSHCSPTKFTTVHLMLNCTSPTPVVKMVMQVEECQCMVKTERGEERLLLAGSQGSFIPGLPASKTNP
Description: SPR.

Results on two molecules are retold here after paper PMC3219680 (2011).

By Kd is commonly meant the equilibrium constant for the complex coming apart.

B1: hBMP2 (ligand)
chain: QAKHKQRKRLKSSCKRHPLYVDFSDVGWNDWIVAPPGYHAFYCHGECPFPLADHLNSTNHAIVQTLVNSVNSKIPKACCVPTELSAISMLYLDENEKVVLKNYQDMVVEGCGCR
With B1, the Kd came to 3.38 nM.

B2: hBMP4 (ligand)
chain: SPKHHSQRARKKNKNCRRHSLYVDFSDVGWNDWIVAPPGYQAFYCHGDCPFPLADHLNSTNHAIVQTLVNSVNSSIPKACCVPTELSAISMLYLDEYDKVVLKNYQEMVVEGCGCR
Take B2: the Kd came to 23.4 nM.
